3 molecules from US20190292245A1 (published 2019) can be followed below.

Read-outs that look alike come from different tables or passages of the source.

For experiment [1], the target named is T1, recombinant tau protein (full-length) (human, UniProt P10636 1-441). The experiment in a line: SPR (Biacore).
For experiment [2], the target named is T1, recombinant tau protein (full-length). The experiment in a line: SPR (Biacore). This is another data set of the same source.

T1 sequence (P10636 other isoform, or with tags, fused parts or gaps): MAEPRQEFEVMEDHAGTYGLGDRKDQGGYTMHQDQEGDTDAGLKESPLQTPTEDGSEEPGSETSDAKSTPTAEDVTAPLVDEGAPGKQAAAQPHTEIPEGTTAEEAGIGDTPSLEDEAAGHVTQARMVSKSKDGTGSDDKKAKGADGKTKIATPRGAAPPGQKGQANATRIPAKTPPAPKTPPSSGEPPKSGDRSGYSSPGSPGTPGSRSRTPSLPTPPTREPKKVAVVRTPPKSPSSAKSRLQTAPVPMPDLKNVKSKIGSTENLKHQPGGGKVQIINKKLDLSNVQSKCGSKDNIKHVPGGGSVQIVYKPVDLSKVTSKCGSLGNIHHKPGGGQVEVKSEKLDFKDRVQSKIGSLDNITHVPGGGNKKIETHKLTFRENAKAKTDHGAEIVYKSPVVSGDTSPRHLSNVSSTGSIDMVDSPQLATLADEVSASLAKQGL

B1: Armanezumab (antibody, V domains shown)
VH: QVQLVQSGAEVKKPGASVKVSCKASGYTFTNHWMHWVRQAPGQGLEWMGAIDPGNSDTSYNQKFKGRVTMTRDTSTSTVYMELSSLRSEDTAVYYCARRDFFGGEYAVDYWGQGTLVTVSS
VL: DIVMTQSPLSLPVTPGEPASISCRSSQSLVHSNGNTYLHWYLQKPGQSPQLLIYKVSNRFSGVPDRFSGSGSGTDFTLKISRVEAEDVGVYYCSQSTHVPWTFGQGTKVEIKR
With B1, the equilibrium dissociation constant (Kd) in experiment [1] was 48 nM.

B2: 1C9 chimeric humanized antibody (antibody, V domains shown)
VH: EVQLQQSGTVLARPGASVKMSCKTSGYTFTNHWMHWVKQRPGQGLEWIGAIDPGNSDTSYNQKFKGQAKLTAVTSASTAFMELSSLTNEDSAVYYCTRRDFFGGEYAVDYWGQGTSVTVSS
VL: DVVMTQTPLSLPVSLGDQASISCRSSQSLVHSNGNTYLHWYLQKPGQSPKLLIYKVSNRFSGVPDRFSGSGSGTDFTLKISRVEAEDLGVYFCSQSTHVPWTFGGGTKLEIK
For B2, the dissociation constant Kd in experiment [2] was 3.91 nM.

B3: mouse monoclonal antibody 1C9 (antibody, V domains shown)
VH: EVQLQQSGTVLARPGASVKMSCKTSGYTFTNHWMHWVKQRPGQGLEWIGAIDPGNSDTSYNQKFKGQAKLTAVTSASTAFMELSSLTNEDSAVYYCTRRDFFGGEYAVDYWGQGTSVTVSS
VL: DVVMTQTPLSLPVSLGDQASISCRSSQSLVHSNGNTYLHWYLQKPGQSPKLLIYKVSNRFSGVPDRFSGSGSGTDFTLKISRVEAEDLGVYFCSQSTHVPWTFGGGTKLEIK
Regarding B3, the Kd in experiment [1] was 9.51 nM; in experiment [2] it was 3.39 nM.
